Biological target: T1, 人血清白蛋白 (human, UniProt P02768 25-609)
T1 construct: also called HSA; human serum albumin
Experiment: SPR (Biacore T200); HSA amine-coupled to CM5 chip, NB4 as analyte

B1: 单域抗体NB4 (VHH)
VHH: QVQLQESGGGSVQAGGSLRLACAASGYTYSSACMAWFRQAPGKEREKVATIYTGGTYPYYADSVKGRFTMSHDNAKNTVYLQMNSLKPEDTGMYYCAADASWGCRLSGSWGAKYNNWGQGTQVTVSS
notes: Camel-derived VHH, expressed in E. coli BL-21 from pET-22 with a C-terminal 6x His tag and purified on a nickel column; also called 抗人血清白蛋白单域抗体
A Kd of 245 pM was found for B1 in this work.

Reference: CN111138536A (REYOUNG (SUZHOU) BIOPHARMACEUTICAL CO LTD, dated 2020)
